The test system of the series is K4 kissing-loop RNA reporter. The experiment in a line: apparent KD of K4 kissing-loop reporter; higher = weaker reporter binding. To be noted: Eterna round: R107. As for the experimental part:
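RNA-MaP round R107: designed RNA switches with theophylline, tryptophan, arginine or FMN aptamers are transcribed on-chip within common flanks. They are titrated with a labelled K4 kissing-loop RNA reporter in RNA-MaP buffer (100 mM Tris pH 7.5, 80 mM KCl, 4 mM MgCl2), without ligand or with the indicated ligand. Median apparent KD per design.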

Where [1] appears, read: input ligand: theophylline 20 uM.
Setting [2] is: input ligand: tryptophan 2.4 mM.
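Also: bound reporter read as fluorescence of individual clusters on recovered sequencing chips by microscopy, with normalized cluster intensities fitted with a binding model.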

For the sequence “UAGGUUUAAUCGGCCGCCACUAUCAGAGCGCCAGUGAUGUUGGAGUAACGAUCGUGGCGAGUUAAUAGGACCGGGAUUCAACACA [Velazaer]”, the “apparent KD of K4 kissing-loop reporter” value by setting is: (input ligand: FMN 200 uM) 159 nM; (input ligand: arginine 13.2 mM) 141 nM; (input ligand: none) 141 nM; under setting [1], 152 nM; under setting [2], 156 nM.

On to “UAGUCCGAGUGAUGGUCAUCACGUGGCGGGCGAGGACCGGUACGGCCGCCACUCGACUUUGCAGUGAUGUUGCAAACCGGACAAU [Exclusion - Tryptophan A (Freestyle 21)]”, for which the “apparent KD of K4 kissing-loop reporter” value runs as follows: (input ligand: FMN 200 uM) 229 nM; (input ligand: arginine 13.2 mM) 185 nM; (input ligand: none) 249 nM; under setting [1], 224 nM; under setting [2], 193 nM.

Turning to “UAGUGGUAGACCAGAUCUACCACUAGGGAUACCAGCCUCGGUCGAGGCCCUUGGCAGCCCAGCGGGUCCAGUGAUGUUGGAUGUC [Raanza]”, the “apparent KD of K4 kissing-loop reporter” value is, setting by setting: (input ligand: FMN 200 uM) 355 nM; (input ligand: arginine 13.2 mM) 256 nM; (input ligand: none) 322 nM; under setting [1], 194 nM; under setting [2], 295 nM.

Turning to “UAUAAGCGCAGAGGAUAUACUAGCUUUCACUAGUGCAGUGAUGUUGCACUAGACCAGCUGUACAUAGUAGAAGGCUGCGUUCCUU [FMN B SS t1]”, the “apparent KD of K4 kissing-loop reporter” value stood at 89.1 nM (input ligand: FMN 200 uM); 116 nM (input ligand: arginine 13.2 mM); 112 nM (input ligand: none); 131 nM under setting [1]; 117 nM under setting [2].

Consider “UAUACACAGGGAGGAUAUGCCCACACAACAACCGAGUGAUGUUCGGACAAUACACAUAAUACACGGGCAGAAGGCCCACAUCACA [SS FNM B Tesla 1]”, for which the “apparent KD of K4 kissing-loop reporter” value runs as follows: (input ligand: FMN 200 uM) 143 nM; (input ligand: arginine 13.2 mM) 195 nM; (input ligand: none) 245 nM; under setting [1], 192 nM; under setting [2], 139 nM.

Turning to “UAUAUAUGAUGUGAUACCAGUGAAAAGCCAGUGAUGUUGGUAGAACUGGUAUAUAAAUAACACCCUUGGCAGCACAAUCACGUAU [whbob_Ex_Theo_B_sa96]”, the “apparent KD of K4 kissing-loop reporter” value runs as follows: (input ligand: FMN 200 uM) 155 nM; (input ligand: arginine 13.2 mM) 134 nM; (input ligand: none) 147 nM; under setting [1], 191 nM; under setting [2], 146 nM.

As for “UAUAUGCAGUGAUGUUGCGGCACACUUCCGAAGGAUAUGUCCGGUGACAGAAGGUCGGUCCAUGGGACAUCACGUGUGCUUGAUG [theeternabot_exclusion_KL_FMN_A_15]”, the “apparent KD of K4 kissing-loop reporter” value reads like this: (input ligand: FMN 200 uM) 542 nM; (input ligand: arginine 13.2 mM) 536 nM; (input ligand: none) 613 nM; under setting [1], 529 nM; under setting [2], 458 nM.

Consider “UAUUUAAUGUCAGGAUAUCGUAUACGAGUGAUGUUCGUAUUUCUACUAUAGAUUAUUUAAAUUUUUCGAGAAGGGACAAUAUUUA [KL-SSFMN-B4]”, for which the “apparent KD of K4 kissing-loop reporter” value came to 177 nM (input ligand: FMN 200 uM); 208 nM (input ligand: arginine 13.2 mM); 193 nM (input ligand: none); 186 nM under setting [1]; 158 nM under setting [2].

Consider “UCAAACGAUGGAAGGAGCGCUCGUCAGUCCUGCGAGUGAUGUUCGUGGGUAAAUAGUCGCGAGCAGGUAGGUCGCCAUCUUAAGC [Bisodi]”, for which the “apparent KD of K4 kissing-loop reporter” value amounted to 135 nM (input ligand: FMN 200 uM); 98.1 nM (input ligand: arginine 13.2 mM); 118 nM (input ligand: none); 108 nM under setting [1]; 113 nM under setting [2].

For “UCACAAGUUAACUAGUGAUGUUAGUUAGUACGAGGACCGGUACGGCCGCCACUCGAAAAGUGGUUUUACGGACUUUUGGGCAGGC [theeternabot_sameState_KL_Trp_A_17]”, the “apparent KD of K4 kissing-loop reporter” value runs as follows: (input ligand: FMN 200 uM) 337 nM; (input ligand: arginine 13.2 mM) 250 nM; (input ligand: none) 268 nM; under setting [1], 223 nM; under setting [2], 260 nM.

For “UCCUACGAGGUAACGUGGAUAUCUCGUUGCAAGGAUAUCUGGAAACAGAGAAGGUGCAACAUUAUCAGCAGUGAUGUUGCUGACC”, the “apparent KD of K4 kissing-loop reporter” value (input ligand: FMN 200 uM) was determined as 215 nM; the “apparent KD of K4 kissing-loop reporter” value (input ligand: arginine 13.2 mM) was determined as 247 nM; the “apparent KD of K4 kissing-loop reporter” value (input ligand: none) was found to be 276 nM; the “apparent KD of K4 kissing-loop reporter” value under setting [1] was determined as 389 nM; the “apparent KD of K4 kissing-loop reporter” value under setting [2] worked out at 329 nM.

As for “UCCUACGAGGUAACGUGGAUAUCUCGUUGCAAGGAUAUCUGGAAACAGAGAAGGUGCUACAUUAUCGGCAGUGAUGUUGCUGACC”, the “apparent KD of K4 kissing-loop reporter” value by setting is: (input ligand: FMN 200 uM) 687 nM; (input ligand: arginine 13.2 mM) 655 nM; (input ligand: none) 1010 nM; under setting [1], 759 nM; under setting [2], 529 nM.

With “UCCUAGGUUCGUCGGCGAAAGCCCUGCGAAGGAGCGUGCGAAAGCACAGGUAGGUCGCGCAGUGAUGUUGCACCUAGGUAAUAAA [#SwitchBubble 23 #K4Late]”, the “apparent KD of K4 kissing-loop reporter” value runs as follows: (input ligand: FMN 200 uM) 1030 nM; (input ligand: arginine 13.2 mM) 672 nM; (input ligand: none) 344 nM; under setting [1], 150 nM; under setting [2], 781 nM.

For “UCCUGCUGUCAGCCACGAAAGUGGAUUGAUACCAGAGUCGAAAGACUCCCUUGGCAGCGAGUGAUGUUCGCAGCAGGUAAAUAAA [MatMod 3 - Jieux - Exclusion - Theophylline A]”, the “apparent KD of K4 kissing-loop reporter” value is, setting by setting: (input ligand: FMN 200 uM) 358 nM; (input ligand: arginine 13.2 mM) 257 nM; (input ligand: none) 269 nM; under setting [1], 356 nM; under setting [2], 256 nM.

On to “UCGAGUUGACGAAAAGUCAACUCGUGAGAUACCAGUGACGAAAGUCACCCUUGGCAGCUCACUGCCAGUGAUGUUGGUAUAUAGA [#05 K4 Theophylline A Same State]”, for which the “apparent KD of K4 kissing-loop reporter” value worked out at 146 nM (input ligand: FMN 200 uM); 80.8 nM (input ligand: arginine 13.2 mM); 105 nM (input ligand: none); 217 nM under setting [1]; 87.5 nM under setting [2].

“UCGCAUCUCAGAAGGAGCGACAGUGAUUCUGAUAGAAAUCUGAGUGAUGUUCAGAACAGCUGUCAGGUAGGUCGCUGAGAUGCGA [Arg B Ex t8]”: the “apparent KD of K4 kissing-loop reporter” value by setting is: (input ligand: FMN 200 uM) 813 nM; (input ligand: arginine 13.2 mM) 384 nM; (input ligand: none) 547 nM; under setting [1], 413 nM; under setting [2], 314 nM.

For the sequence “UCUGCAAAGUCGGCCGCCACUCCGGGCCCUAUAAAUGGGCGCAGUGAUGUUGCGGCUAGGCCUCUGAGGACCGGGACUUUGUAGA [Atlesoqu]”, the “apparent KD of K4 kissing-loop reporter” value stood at 87.5 nM (input ligand: FMN 200 uM); 54.3 nM (input ligand: arginine 13.2 mM); 100 nM (input ligand: none); 132 nM under setting [1]; 246 nM under setting [2].

Turning to “UCUGUUUCGAUGGAUACCAGUCGGCGAAUCACAGCUAUUAGCCUAGUGAUGUUAGGAUCGGACCCUUGGCAGCCAAUGGAUGCGG [theeternabot_sameState_KL_Theo_B_14]”, the “apparent KD of K4 kissing-loop reporter” value reads like this: (input ligand: FMN 200 uM) 921 nM; (input ligand: arginine 13.2 mM) 750 nM; (input ligand: none) 1240 nM; under setting [1], 1270 nM; under setting [2], 732 nM.

For the origin of these results see the supplement of paper PMC9170038.
